In patent US6440461B1, “Poly(methylidene malonate) microspheres, preparation method and pharmaceutical compositions containing them” (Virsol, priority 1998, dated 2002):

Test system: C3H mice
Assay: Oral tolerance induction: survival of mice after sensitisation to ovalbumin by subcutaneous injection
Format: in vivo
Conditions: 100 micrograms ovalbumin per mouse per day over 5 consecutive days, last dose 7 days before s.c. sensitisation with free ovalbumin (100 micrograms per mouse) on D0 and D14
Method: This preparation is administered via the oral route to C3H mice at the dose of 100 micrograms of encapsulated ovalbumin (per mouse per day) over 5 consecutive days. The last oral administration took place 7 days before the sensitisation of the animals to ovalbumin which is carried out by subcutaneous injection of free ovalbumin (100 micrograms per mouse) on days DO and D14. 90% of the mice survive the second injection while less than 30% of the mice administered with the microspheres without ovalbumin or with the same dose of non-encapsulated ovalbumin survive.

B1: ovalbumin (protein, UniProt P01012 2-386, looked up)
Ovalbumin: GSIGAASMEFCFDVFKELKVHHANENIFYCPIAIMSALAMVYLGAKDSTRTQINKVVRFDKLPGFGDSIEAQCGTSVNVHSSLRDILNQITKPNDVYSFSLASRLYAEERYPILPEYLQCVKELYRGGLEPINFQTAADQARELINSWVESQTNGIIRNVLQPSSVDSQTAMVLVNAIVFKGLWEKAFKDEDTQAMPFRVTEQESKPVQMMYQIGLFRVASMASEKMKILELPFASGTMSMLVLLPDEVSGLEQLESIINFEKLTEWTSSNVMEERKIKVYLPRMKMEEKYNLTSVLMAMGITDVFSSSANLSGISSAESLKISQAVHAAHAEINEAGREVVGSAEAGVDAASVSEEFRADHPFLFCIKHIATNAVLFFGRCVSP
  mice surviving the second injection of free ovalbumin: less than 30%
